These results are taken from article PMC3825029 (Journal of immunology (Baltimore, Md. : 1950), 2013).

In one test the target is C3b. The experiment in a line: SPR. (In general: Surface plasmon resonance follows binding to a sensor surface in real time, without labels.)
The target in another test is C3dg (UniProt P01024 955-1303). The test is described as follows: SPR.
Chain of C3dg (P01024 955-1303): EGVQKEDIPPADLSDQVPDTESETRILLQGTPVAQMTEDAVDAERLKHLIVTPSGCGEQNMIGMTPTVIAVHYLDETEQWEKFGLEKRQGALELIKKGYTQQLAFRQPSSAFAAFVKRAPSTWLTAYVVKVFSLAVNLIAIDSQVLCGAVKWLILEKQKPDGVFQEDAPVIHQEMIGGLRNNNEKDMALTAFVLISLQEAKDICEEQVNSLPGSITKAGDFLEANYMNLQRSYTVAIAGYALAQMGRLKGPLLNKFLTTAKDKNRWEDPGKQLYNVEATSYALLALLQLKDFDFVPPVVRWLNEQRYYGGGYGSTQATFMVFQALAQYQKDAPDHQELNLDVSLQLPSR

Broadly, the Kd is the constant that tells how readily two partners part at equilibrium. A low value points to higher affinity. Turning to “mini-FH (from UniProt P08603 1-264; P08603 1107-1231) (designed binder)”, the Kd with C3b turned out to be 1 µM.
On the same count and under the same terms, the result for “factor H (from UniProt P08603 19-1231) (natural protein)” reads 1 µM.

B1: FH19-20 (domain or fragment, human)
chain: GKCGPPPPIDNGDITSFPLSVYAPASSVEYQCQNLYQLEGNKRITCRNGQWSEPPKCLHPCVISREIMENYNIALRWTAKQKLYSRTGESVEFVCKRGYRLSSRSHTLRTTCWDGKLEYPTCAKR
On to B1, for which the binding result with C3dg is “binds”.
